Measurements as given in patent US20240010747A1, “ANTI-MRP4 (ENCODED BY ABCC4 GENE) ANTIBODIES AND USES THEREOF” (Kenjockety Biotechnology, Inc., priority 2020, published 2024).
Residue numbers refer to the chain shown, from its start.

B1: C4.1075: anti-ABCC4 antibody raised in rats; VH SEQ ID NO: 25, VL SEQ ID NO: 141 (antibody, V domains shown)
VH: EVQLKESGPGLVQPSQTLSLTCTVSGLSLISSNINWVRQPPGKGLEWIGAISSGGSAFYNSALKSRLTSSRDTSKSQVFLKMNSLQTEDTAIYFCARGGSEDPDYFDYWGQGVMVTVSS
VL: DIVMTQSPSSLAVSAGETVTINCKSSQSLLYSGNQKNYLAWYQQKPGQSPKLLIYWSSTRQSGVPDRFMGSGSGTDFTLTISSVQAEDLAIYYCQQYYDTPLTFGSGTKLEIK
B2: C4.1143: anti-ABCC4 antibody raised in rats; VH SEQ ID NO: 31, VL SEQ ID NO: 148 (antibody, V domains shown)
VH: EVQLVESDGGLLQPGRSLKLSCAASGFTFSDFYMAWVRQAPTKGLEWIATISHDGRNTYYRDSVKGRFTISRDNAKRTLYLEMDSLRSEDTATYYCATLTTRYKGVMEAWGQGASVTVSS
VL: DVVMTQSPSHLAASPGESVSINCKASKNIYKYLAWYQQKPGKTNKLLIYSGSTLQSGTPSRFSGSGSGSDFTLTIRNLEPEDFGLYYCQHHNEYPPTFGGGTKLEIK
B3: C4.1164: anti-ABCC4 antibody raised in rats; VH SEQ ID NO: 36, VL SEQ ID NO: 153 (antibody, V domains shown)
VH: EVQLVESDGGLVQPGRSLKLSCAASGFTFSDYYMAWVRQAPTKGLYWVASISYDGSTTYYRDSVKGRFTISRDNAKSTLYLQMGSLRSEDTATYYCARLSIRYKGVMDAWGRGASVTVS
VL: DIQMTQSPSNLAASPGESVSINCKASETIYKYLAWYQQKPGRTNKLLIYSGSTLQSGTPSRFSGSGSGTDFTLTIRNLEPEDFGRYYCQHHVEYPPTFGAGTKLELK
B4: C4.957: anti-ABCC4 antibody raised in rats; VH SEQ ID NO: 8, VL SEQ ID NO: 127 (antibody, V domains shown)
VH: EVQLKESGPGLVQPSQTLSLTCTVSGFSLTNYGVSWVRQPPGKGLEWIGAIWSGGSTGYNSALKSRLSISRDTSKSQVLLKMNSLQTEDTAMYFCARSGVEGPPFDYWGQGASVTVSS
VL: AIQVTQSPTSLSASLGDRVTLTCRASQDINNKMAWYQQKPGEVPQLLIYYASTLQSGTPSRFSGSGSGTDFSFTISHLQSEDFATYYCLQGYSLYTFGAGTKLELK
B5: C4.1069: anti-ABCC4 antibody raised in rats; VH SEQ ID NO: 22, VL SEQ ID NO: 144 (antibody, V domains shown)
VH: GLVQPSQTLSLTCTVSGFSLNSNGVSWVRQPPGKGLEWIVEISSGGSAFYNSALKSRLSISRDTSKSQVFLKMNSLQTEDTAIYFCTRGGTEDPDYFDYWGQGASVTVSS
VL: B1 VL with M4L, K45T, S57A, M69I, T78I, S82T, L102V, I112L
B6: C4.1073: anti-ABCC4 antibody raised in rats; VH SEQ ID NO: 24, VL SEQ ID NO: 146 (antibody, V domains shown)
VH: EVQMKESGPGLVQPSQTLSLTCTVSGFSLTSYHVHWVRQPPGKGLEWMGVMWSDGDTSYNSALKSRLSINRDTSQSRVFLKMNSLQTEDTSTYYCARDRDVLYYDGDFSPFVMDAWGQGASVTVSS
VL: DIQMTQSPSNLAASPGESVSINCKASKSISKFLAWYQQKSGKANKLLIYSASTLQSGTPSRFSGSGSGTDFTLTIRNLEPEDFGLYYCQQHNEYPLTFGSGTKLEIK
B7: C4.956: anti-ABCC4 antibody raised in rats; VH SEQ ID NO: 7, VL SEQ ID NO: 127 (antibody, V domains shown)
VH: QLKESGPGLVKPSQSLSLTCSVTGYTITSGYDWTWLRKFPGNKMEWMGYISYSGFTNYNPSLRSRISITRDTSKNQFFLQLNSVTAEDTATYFCTRTRGYNPFPYWGQGTLVTVSS
VL: B4 VL
B8: C4.970: anti-ABCC4 antibody raised in rats; VH SEQ ID NO: 10, VL SEQ ID NO: 131 (antibody, V domains shown)
VH: EVQLVESGPGLVQPSQTLSLTCTVAGFSLTSYNVHWVRQPPGKGLEWMGVIWNTGDTRYDSALKSRLSISKDTSKSQVFLNMNSLQTEDTATYYCARDDNVYYGMHAMDAWGQGASVTVSS
VL: DIKMIQSPSSLSASLGERVTISCRASENINNYLSWYQKKEDGSVKLLIYHTSRLQPGAPSRFSGSGSGKDYSLTISGLDSEDIATYYCQQGYTPPTFGAGTKLELK

Target: T1, human ABCC4 (Homo sapiens, UniProt O15439)
T1 construct: expressed in transfected cells
T1 sequence (O15439 1-1325): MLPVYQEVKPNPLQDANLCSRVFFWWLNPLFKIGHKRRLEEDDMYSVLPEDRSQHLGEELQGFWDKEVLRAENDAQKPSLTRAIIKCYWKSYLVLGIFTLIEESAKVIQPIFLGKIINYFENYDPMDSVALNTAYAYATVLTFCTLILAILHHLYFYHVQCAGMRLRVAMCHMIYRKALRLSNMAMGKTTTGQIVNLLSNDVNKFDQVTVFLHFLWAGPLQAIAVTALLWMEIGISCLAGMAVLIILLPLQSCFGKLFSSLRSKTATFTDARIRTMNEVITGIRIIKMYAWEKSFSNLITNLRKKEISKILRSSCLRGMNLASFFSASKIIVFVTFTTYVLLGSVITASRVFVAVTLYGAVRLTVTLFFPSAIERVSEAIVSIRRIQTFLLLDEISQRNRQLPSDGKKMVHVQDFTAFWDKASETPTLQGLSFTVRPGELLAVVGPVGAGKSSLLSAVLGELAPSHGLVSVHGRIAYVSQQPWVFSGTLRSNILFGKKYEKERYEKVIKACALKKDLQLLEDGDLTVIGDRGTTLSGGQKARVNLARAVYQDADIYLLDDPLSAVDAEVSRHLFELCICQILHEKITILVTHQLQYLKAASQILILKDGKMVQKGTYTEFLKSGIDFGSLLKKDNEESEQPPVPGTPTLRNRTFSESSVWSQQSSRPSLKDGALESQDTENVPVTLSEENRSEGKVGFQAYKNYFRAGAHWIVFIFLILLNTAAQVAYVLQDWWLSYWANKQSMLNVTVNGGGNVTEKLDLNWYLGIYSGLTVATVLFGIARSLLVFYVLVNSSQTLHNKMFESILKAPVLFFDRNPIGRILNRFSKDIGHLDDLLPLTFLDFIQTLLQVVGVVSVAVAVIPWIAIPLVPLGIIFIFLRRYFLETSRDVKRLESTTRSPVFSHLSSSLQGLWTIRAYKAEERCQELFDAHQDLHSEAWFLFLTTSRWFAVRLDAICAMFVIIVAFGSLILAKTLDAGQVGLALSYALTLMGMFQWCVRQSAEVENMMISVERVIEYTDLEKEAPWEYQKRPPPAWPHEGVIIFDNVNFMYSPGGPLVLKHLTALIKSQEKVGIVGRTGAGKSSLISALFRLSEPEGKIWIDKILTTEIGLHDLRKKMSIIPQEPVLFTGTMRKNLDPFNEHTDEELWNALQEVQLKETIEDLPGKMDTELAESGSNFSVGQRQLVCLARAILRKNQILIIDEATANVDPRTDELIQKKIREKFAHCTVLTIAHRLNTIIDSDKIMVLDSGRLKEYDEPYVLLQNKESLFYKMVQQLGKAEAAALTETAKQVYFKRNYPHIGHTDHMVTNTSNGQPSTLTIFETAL
Test: Flow cytometry (FACS) binding to C6 cells stably transfected to express human ABCC4 (different experiment, Table 4)
Conditions: C6 cells stably transfected to express human ABCC4, FACS; different experiment, Table 4
Procedure: (§1) Binding titration of recombinant antibodies to ABCC4 transfectants was performed by serial dilution of antibodies from about 666 nM. Diluted antibody in flow cytometry buffer was incubated with cells on ice for 30 min. After 2 washes with flow cytometry buffer, bound antibody was detected with PE-labeled F(ab′)2 fragment goat anti-human IgG (Jackson ImmunoResearch) diluted 1:200 in flow cytometry buffer and incubated with cells for 20 min on ice. After 2 washes with flow cytometry buffer fluorescence was measured on an Attune N×T flow cytometer. Data were analyzed with GraphPad Prism 8.0 software to determine EC50's.
(§2) Human embryonic kidney HEK 293T cells and murine C6 (ATCC CCL-107) were transfected with human or cynomolgus ABCC4 cDNA with C-terminal fused FLAG tag in a pMONO-hygro vector with Lipofectamine 3000 (Invitrogen #L3000001). The cells were treated with 0.2 mg/ml and 0.5 mg/ml hygromycin respectively for about 2 weeks while cultivated in DMEM and 10% FBS with 0.2 mg/ml hygromycin and 0.5 mg/ml hygromycin, respectively. The cells were washed with PBS, and stained with […] of anti-FLAG-PE after fixing and permeablization. Clones expressing ABCC4 were single-cell sorted into 200 μl DMEM with 10% FBS using a BD Aria FACS machine and cultivated in 96 well plates using standard techniques in an incubator at 37° C. and 5% CO 2. Two weeks later clones expressing high levels of ABCC4 were screened and amplified.
(§3) Antibody binding to cells was evaluated by flow cytometry. Murine C6 cells stably transfected to express human or cynomolgus ABCC4 were washed once in flow cytometry buffer (PBS+2% FBS+0.02% sodium azide), resuspended at 2×10^6 cells/mL in flow cytometry buffer, and dispensed into 96-well microtiter plates at 0.1 mL/well. Recombinant antibodies were added to cells at 5 ug/mL for initial binding confirmation, or serially diluted from 100 ug/mL in flow cytometry buffer. After incubating cells on ice for 30 min, cells were washed twice with flow cytometry buffer. Bound antibody was detected with PE-labeled F(ab′)2 fragment goat anti-human IgG (Jackson ImmunoResearch) and evaluated on an Attune N×T flow cytometer. EC50 is calculated to be the concentration of antibody that gives half maximal response.
(§4) In a different experiment, using a different C6.cC4 cell line, detecting the binding of anti-ABCC4 antibodies to C6 cells stably transfected to express human ABCC4 measured by FACS and to C6 cells stably transfected to express cynomolgus ABCC4 measured by FACS, the results set forth in Table 4 were obtained. Negative (−)=Rmax (MFI) below background level. Positive (+)=MFI>3× background level.

Molecule | Human ABCC4 binding
B1 | + (Positive (+)=MFI>3× background level)
B2 | + (Positive (+)=MFI>3× background level)
B3 | + (Positive (+)=MFI>3× background level)
B4 | + (Positive (+)=MFI>3× background level)
B5 | + (Positive (+)=MFI>3× background level)
B6 | + (Positive (+)=MFI>3× background level)
B7 | + (Positive (+)=MFI>3× background level)
B8 | + (Positive (+)=MFI>3× background level)

Same assay, conditions: Table 4 study, stated in words

Molecule | binding to human ABCC4 expressed on cell surface
B1 | bind to both human and cynomolgus ABCC4
B2 | bind to both human and cynomolgus ABCC4
B3 | bind to both human and cynomolgus ABCC4
B4 | bind to both human and cynomolgus ABCC4
B5 | bind to both human and cynomolgus ABCC4
B6 | bind to both human and cynomolgus ABCC4

System: cynomolgus ABCC4
Test: Flow cytometry (FACS) binding to C6 cells stably transfected to express cynomolgus ABCC4 (different experiment, different C6.cC4 cell line, Table 4)
Parameters: key to Cynomolgus ABCC4 binding: Negative (−)=Rmax (MFI) below background level; Positive (+)=MFI>3× background level
Conditions: Table 4 study, stated in words
Procedure: as §1, §2, §3, §4

Molecule | binding to cynomolgus ABCC4 expressed on cell surface
B1 | bind to both human and cynomolgus ABCC4
B2 | bind to both human and cynomolgus ABCC4
B3 | bind to both human and cynomolgus ABCC4
B4 | bind to both human and cynomolgus ABCC4
B5 | bind to both human and cynomolgus ABCC4
B6 | bind to both human and cynomolgus ABCC4

Same assay, conditions: different C6.cC4 cell line, C6 cells stably transfected to express cynomolgus ABCC4, FACS; Table 4

Molecule | Cynomolgus ABCC4 binding
B1 | + (Positive (+)=MFI>3× background level)
B2 | + (Positive (+)=MFI>3× background level)
B3 | + (Positive (+)=MFI>3× background level)
B4 | + (Positive (+)=MFI>3× background level)
B5 | + (Positive (+)=MFI>3× background level)
B6 | + (Positive (+)=MFI>3× background level)
B7 | −
B8 | −
